Test results published in PMC7854634, “Cryo-EM of mammalian PA28αβ-iCP immunoproteasome reveals a distinct mechanism of proteasome activation by PA28αβ” (Nature Communications, 2021).

B1: bovine iCP subunit α4 (natural protein)
chain: not shown
notes: 20S proteasome subunit α4, bovine; Stood in the experiments as a subunit of m2; source: purified from bovine spleen as a subunit of the iCP
B2: human PA28α (natural protein)
chain: MAMLRVQPEAQAKVDVFREDLCTKTENLLGSYFPKKISELDAFLKEPALNEANLSNLKAPLDIPVPDPVKEKEKEERKKQQEKEDKDEKKKGEDEDKGPPCGPVNCNEKIVVLLQRLKPEIKDVIEQLNLVTTWLQLQIPRIEDGNNFGVAVQEKVFELMTSLHTKLEGFHTQISKYFSERGDAVTKAAKQPHVGDYRQLVHELDEAEYRDIRLMVMEIRNAYAVLYDIILKNFEKLKKPRGETKGMIY
notes: C-terminal residue printed as Y249; Stood in the experiments as a subunit of m1; also called PA28 α1, α2, α3, α4 (its copies in the heptamer); source: E. coli BL21 (DE3), co-expressed with PA28β, purified as the PA28αβ heteroheptamer
B3: human PA28β (natural protein)
chain: not shown
notes: C-terminal residue printed as Y239; Stood in the experiments as a subunit of m1; also called PA28 β1, β2, β3 (its copies in the heptamer); source: E. coli BL21 (DE3), co-expressed with PA28α, purified as the PA28αβ heteroheptamer

What was measured:
Details in all cases: both partners purified
human PA28α = target: B2; assay: cryo-EM structure; PA28αβ and iCP mixed at a molar ratio of 10:1, 37 °C 30 min, cross-linked with 0.1% glutaraldehyde at 4 °C for 2 h, glycerol gradient; single-capped (4.1 Å) and double-capped (4.2 Å) complexes and free iCP (3.3 Å) from one data set
bovine iCP subunit α3 = target: T1, bovine iCP subunit α3 (bovine, UniProt Q3ZCK9 1-261); assay: as above
T1 construct: 20S proteasome subunit α3, bovine; Stood in the experiments as a subunit of m2; source: purified from bovine spleen as a subunit of the iCP
T1 sequence (Q3ZCK9 whole entry): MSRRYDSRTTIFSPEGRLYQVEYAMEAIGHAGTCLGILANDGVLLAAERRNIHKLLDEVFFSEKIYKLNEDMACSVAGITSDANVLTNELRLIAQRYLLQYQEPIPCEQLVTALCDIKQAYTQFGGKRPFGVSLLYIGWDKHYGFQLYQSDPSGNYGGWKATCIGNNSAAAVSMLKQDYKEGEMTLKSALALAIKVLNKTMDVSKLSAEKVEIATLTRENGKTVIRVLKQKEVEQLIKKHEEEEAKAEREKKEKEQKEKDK

bovine iCP subunit α6 = target: T2, bovine iCP subunit α6 (bovine, UniProt Q3T0X5 1-263); assay: cross-linking; XL-MS: PA28αβ and iCP mixed 10:1, 37 °C 30 min, 0.25 mM BS3 on ice 2 h, glycerol gradient, trypsin digest, pLink2; E-value threshold 1.00E-02
T2 construct: 20S proteasome subunit α6, bovine; Stood in the experiments as a subunit of m2; source: purified from bovine spleen as a subunit of the iCP
T2 sequence (Q3T0X5 whole entry): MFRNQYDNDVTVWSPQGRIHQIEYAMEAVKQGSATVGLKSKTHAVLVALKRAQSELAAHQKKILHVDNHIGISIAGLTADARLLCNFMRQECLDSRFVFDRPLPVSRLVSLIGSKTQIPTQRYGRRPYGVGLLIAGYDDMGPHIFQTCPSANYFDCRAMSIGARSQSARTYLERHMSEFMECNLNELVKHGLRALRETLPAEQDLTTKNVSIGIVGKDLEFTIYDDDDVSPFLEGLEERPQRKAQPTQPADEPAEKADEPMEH

bovine iCP subunit α4 = target: B1; assay: cryo-EM structure; PA28αβ and iCP mixed at a molar ratio of 10:1, 37 °C 30 min, cross-linked with 0.1% glutaraldehyde at 4 °C for 2 h, glycerol gradient; single-capped (4.1 Å) and double-capped (4.2 Å) complexes and free iCP (3.3 Å) from one data set
Chain of bovine iCP subunit α4 (Q3ZBG0 whole entry): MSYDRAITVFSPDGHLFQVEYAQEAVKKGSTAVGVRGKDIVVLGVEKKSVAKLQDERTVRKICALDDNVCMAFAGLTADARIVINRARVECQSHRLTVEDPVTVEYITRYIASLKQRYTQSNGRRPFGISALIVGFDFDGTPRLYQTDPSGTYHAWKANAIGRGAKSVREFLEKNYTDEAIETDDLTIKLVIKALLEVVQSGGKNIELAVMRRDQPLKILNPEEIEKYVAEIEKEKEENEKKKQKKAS

human PA28β = target: B3; assay: as above

Row | binding result (human PA28α) | binding result (bovine iCP subunit α3) | Binder | other results
1 | binds |  | B1 | 
2 | binds |  | bovine iCP subunit α5 (natural protein, UniProt Q5E987 1-241, looked up, 20S proteasome subunit α5, bovine; Stood in the experiments as a subunit of m2; source: purified from bovine spleen as a subunit of the iCP) MFLTRSEYDRGVNTFSPEGRLFQVEYAIEAIKLGSTAIGIQTSEGVCLAVEKRITSPLMEPSSIEKIVEIDAHIGCAMSGLIADAKTLIDKARVETQNHWFTYNETMTVESVTQAVSNLALQFGEEDADPGAMSRPFGVALLFGGVDEKGPQLFHMDPSGTFVQCDARAIGSASEGAQSSLQEVYHKSMTLKEAIKSSLIILKQVMEEKLNATNIELATVQPGQNFHMFTKEELEEVIKDI | 
3 |  | binds | B2 | 
4 |  | binds | B3 | binding result (bovine iCP subunit α6): binds; binding result (bovine iCP subunit α4): binds
5 | binds |  | bovine iCP subunit α2 (natural protein, UniProt Q3T0Y5 1-234, looked up, 20S proteasome subunit α2, bovine; Stood in the experiments as a subunit of m2; source: purified from bovine spleen as a subunit of the iCP) MAERGYSFSLTTFSPSGKLVQIEYALAAVAGGAPSVGIKAANGVVLATEKKQKSILYDERSVHKVEPITKHIGLVYSGMGPDYRVLVHRARKLAQQYYLVYQEPIPTAQLVQRVASVMQEYTQSGGVRPFGVSLLICGWNEGRPYLFQSDPSGAYFAWKATAMGKNYVNGKTFLEKRYNEDLELEDAIHTAILTLKESFEGQMTEDNIEVGICNEAGFRRLTPTEVKDYLAAIA | binding result (human PA28β): binds
